Assay results reported in publication PMC11509930, “Improving Hydrolytic Activity and Enantioselectivity of Epoxide Hydrolase from Phanerochaete chrysosporium by Directed Evolution” (Molecules, 2024).

What was measured:
[1] = substrate: c1ccc([C@@H]2CO2)cc1; experiment: purified protein; assay type: biochemical, Phanerodontia chrysosporium; conditions: 10-80 mM SO, 37 °C, buffer pH 8.0
[2] = substrate: c1ccc([C@H]2CO2)cc1; experiment: purified protein; assay type: biochemical, Phanerodontia chrysosporium; conditions: 10-80 mM SO, 37 °C, buffer pH 8.0

B1: PchEHA (epoxide hydrolase) (Phanerodontia chrysosporium; G14A/K291R/Y163H) (protein)
chain: MDASLFKDFKTSRAFNYHYFYSPAKGPRPTLFFLHGNPSVATDWAQIVPHFTSRGYGVLAPDMLGYGDTDKPTDPALYVSSGMCRNLVDLLDHEGLEKVIAIGHDWGCLSVSRLASYYPERVIAYAFLAASFIGPIPPIPFDAFLEYIKQQVGYELYGYWKFHSEPGLDQFVRDHLDTFLSILWPSDPAVWKTRLAPTGALKQSALEGWTAPLAPYITEEFKKHHVEVFNKNGFEAPACYYRIMTSGLQAEDDKQILPERAVPPKDAPVFFGAANKDYICIPALAYATFKRDEWKDHKITIKEYDADHWLILSHADQVSRDLEAWIEGFASGGQ
notes: catalytic triad D105/H308/D277
Km [1]: 20.36 ± 1.34 mM | kcat [1]: 2480 ± 52.4 s⁻¹ | kcat/Km [1]: 122000 M⁻¹ s⁻¹ | Km [2]: 57.82 ± 7.75 mM | kcat/Km [2]: 36000 M⁻¹ s⁻¹

B2: PchEHA (epoxide hydrolase) (Phanerodontia chrysosporium; A24T/E251G) (protein)
chain: MDASLFKDFKTSRGFNYHYFYSPTKGPRPTLFFLHGNPSVATDWAQIVPHFTSRGYGVLAPDMLGYGDTDKPTDPALYVSSGMCRNLVDLLDHEGLEKVIAIGHDWGCLSVSRLASYYPERVIAYAFLAASFIGPIPPIPFDAFLEYIKQQVGYELYGYWKFYSEPGLDQFVRDHLDTFLSILWPSDPAVWKTRLAPTGALKQSALEGWTAPLAPYITEEFKKHHVEVFNKNGFEAPACYYRIMTSGLQAGDDKQILPERAVPPKDAPVFFGAANKDYICIPALAYATFKKDEWKDHKITIKEYDADHWLILSHADQVSRDLEAWIEGFASGGQ
notes: as for B1
Km [1]: 26.28 ± 3.79 mM | kcat [1]: 1660 ± 87.3 s⁻¹ | kcat/Km [1]: 63100 M⁻¹ s⁻¹ | Km [2]: 43.98 ± 3.94 mM | kcat/Km [2]: 25900 M⁻¹ s⁻¹

B3: PchEHA (epoxide hydrolase) (Phanerodontia chrysosporium; C108S/G14A/K291R) (protein)
chain: MDASLFKDFKTSRAFNYHYFYSPAKGPRPTLFFLHGNPSVATDWAQIVPHFTSRGYGVLAPDMLGYGDTDKPTDPALYVSSGMCRNLVDLLDHEGLEKVIAIGHDWGSLSVSRLASYYPERVIAYAFLAASFIGPIPPIPFDAFLEYIKQQVGYELYGYWKFYSEPGLDQFVRDHLDTFLSILWPSDPAVWKTRLAPTGALKQSALEGWTAPLAPYITEEFKKHHVEVFNKNGFEAPACYYRIMTSGLQAEDDKQILPERAVPPKDAPVFFGAANKDYICIPALAYATFKRDEWKDHKITIKEYDADHWLILSHADQVSRDLEAWIEGFASGGQ
notes: as for B1
Km [1]: 21.71 ± 2.6 mM | kcat [1]: 3020 ± 120 s⁻¹ | kcat/Km [1]: 139000 M⁻¹ s⁻¹ | Km [2]: 51.04 ± 2.04 mM | kcat/Km [2]: 19700 M⁻¹ s⁻¹

B4: PchEHA (epoxide hydrolase) (Phanerodontia chrysosporium; E251G/Y163H) (protein)
chain: MDASLFKDFKTSRGFNYHYFYSPAKGPRPTLFFLHGNPSVATDWAQIVPHFTSRGYGVLAPDMLGYGDTDKPTDPALYVSSGMCRNLVDLLDHEGLEKVIAIGHDWGCLSVSRLASYYPERVIAYAFLAASFIGPIPPIPFDAFLEYIKQQVGYELYGYWKFHSEPGLDQFVRDHLDTFLSILWPSDPAVWKTRLAPTGALKQSALEGWTAPLAPYITEEFKKHHVEVFNKNGFEAPACYYRIMTSGLQAGDDKQILPERAVPPKDAPVFFGAANKDYICIPALAYATFKKDEWKDHKITIKEYDADHWLILSHADQVSRDLEAWIEGFASGGQ
notes: as for B1
Km [1]: 14.16 ± 1.19 mM | kcat [1]: 2350 ± 52.3 s⁻¹ | kcat/Km [1]: 166000 M⁻¹ s⁻¹ | Km [2]: 30.39 ± 2.99 mM | kcat/Km [2]: 32500 M⁻¹ s⁻¹

B5: PchEHA (epoxide hydrolase) (Phanerodontia chrysosporium) (protein)
chain: MDASLFKDFKTSRGFNYHYFYSPAKGPRPTLFFLHGNPSVATDWAQIVPHFTSRGYGVLAPDMLGYGDTDKPTDPALYVSSGMCRNLVDLLDHEGLEKVIAIGHDWGCLSVSRLASYYPERVIAYAFLAASFIGPIPPIPFDAFLEYIKQQVGYELYGYWKFYSEPGLDQFVRDHLDTFLSILWPSDPAVWKTRLAPTGALKQSALEGWTAPLAPYITEEFKKHHVEVFNKNGFEAPACYYRIMTSGLQAEDDKQILPERAVPPKDAPVFFGAANKDYICIPALAYATFKKDEWKDHKITIKEYDADHWLILSHADQVSRDLEAWIEGFASGGQ
notes: as for B1
Km [1]: 25.75 ± 2.08 mM | kcat [1]: 1740 ± 50.8 s⁻¹ | kcat/Km [1]: 67500 M⁻¹ s⁻¹ | Km [2]: 39.23 ± 4.49 mM | kcat/Km [2]: 34400 M⁻¹ s⁻¹

B6: PchEHA (epoxide hydrolase) (Phanerodontia chrysosporium; E251G/G14A/K291R) (protein)
chain: MDASLFKDFKTSRAFNYHYFYSPAKGPRPTLFFLHGNPSVATDWAQIVPHFTSRGYGVLAPDMLGYGDTDKPTDPALYVSSGMCRNLVDLLDHEGLEKVIAIGHDWGCLSVSRLASYYPERVIAYAFLAASFIGPIPPIPFDAFLEYIKQQVGYELYGYWKFYSEPGLDQFVRDHLDTFLSILWPSDPAVWKTRLAPTGALKQSALEGWTAPLAPYITEEFKKHHVEVFNKNGFEAPACYYRIMTSGLQAGDDKQILPERAVPPKDAPVFFGAANKDYICIPALAYATFKRDEWKDHKITIKEYDADHWLILSHADQVSRDLEAWIEGFASGGQ
notes: as for B1
Km [1]: 22.6 ± 1.75 mM | kcat [1]: 2250 ± 59 s⁻¹ | kcat/Km [1]: 99600 M⁻¹ s⁻¹ | Km [2]: 41.96 ± 2.07 mM | kcat/Km [2]: 38300 M⁻¹ s⁻¹
